Tests used:
Assay in all cases: SPR; Biacore 3000; hIgG, hIgM or hIgA amine-coupled to CM-5 chips (10 mM sodium acetate, pH 5.0, 4.5 or 4.0); LD5 or SpA as analyte in serial 1:2 dilutions from 1.25 and 0.8 uM; flow 40 ul/min; NaCl/HEPES with 0.005% surfactant P20; regeneration 100 mM alanine-HCl pH 2.5
human IgA (human) = molecular target: human IgA (human)
human IgG (human) = molecular target: human IgG (human)
human IgM (human) = molecular target: human IgM (human)

Q: What does the source list for “staphylococcal protein A (SpA) (from UniProt P02976 37-485) (natural protein)”?
A: Kd (human IgA (human)): 7.03 nM; koff (human IgA (human)): 0.00292 s⁻¹; kon (human IgA (human)): 416000 M⁻¹ s⁻¹; Ka (human IgG (human)): 3.45e+09 M⁻¹; Kd (human IgG (human)): 0.29 nM; koff (human IgG (human)): 4.4e-05 s⁻¹; kon (human IgG (human)): 154000 M⁻¹ s⁻¹; Kd (human IgM (human)): 7.15 nM; koff (human IgM (human)): 0.000817 s⁻¹; kon (human IgM (human)): 115000 M⁻¹ s⁻¹

Source: article PMC3077374
